Experimental data: article PMC3902929 (Nucleic Acids Research, 2013)

Biological target: the molecule itself
Test: crystal structure

B1: Clostridium thermocellum polynucleotide kinase (CthPnk) mutant D38N (enzyme, UniProt A3DJ38 1-170, looked up)
chain: MKLTIPELSLVVLIGSSGSGKSTFAKKHFKPTEVISSNFCRGLVSDDENDQTVTGAAFDVLHYIVSKRLQLGKLTVVDATNVQESARKPLIEIAKDYHCFPVAVVFNLPEKVCQERNKNRTDRQVEEYVIRKHTQQMKKSIKGLQREGFRYVYILNSPEEVEEVVFERQP
binding result: binds
